Reference: patent publication US20260258115A1 (MAPP BIOPHARMACEUTICAL, published 2026)

B1: ADI-41626 (antibody, V domains shown)
VH: EVQLQESGPGLVKPSGTLSLTCAVAGGFISSGNWWSWIRQPPGKGLEWIGEVYHSGRTSYNPSLKSRVTISVDNSKNQFSLKMSSVTAADTAVYYCARVESYSSSGYYIAYFDNWGQGNLVTVSS
VL: DIVLTQSPSSLSASVGDRVTITCRASQSISRYLSWYQQKPGKAPKLLIYAAFSLQTGVPSRFSGSGSGTDFTLTISSFQTEDSATYYCQQSYSAPVTFGGGTKVEIK
B2: ADI-41664 (antibody, V domains shown)
VH: EVQLVQSGDEVKKPGASVKVSCKASGYPFSTYGISWVRQAPGQGLEWMGWIGVYTGGTNYAQKFQGRVTLTTDTSTSTAYMELRSLRSDDTAVYYCARGTGSYMTATYFDYWGQGTLVTVSS
VL: SYELTQPPSVSVAPGQTARITCGGNNIGSKAVHWYQQKPGQAPVLVVYDDYDRPSGIPERFSGSNSGNTATLTISRVEAGDEADYYCQVWDSSSDYVFGTGTKLTVL
notes: also called Ab 890; Antibody Number 890
B3: ADI-41662 (antibody, V domains shown)
VH: QVQLVQSGAEVKKAGESLKISCKGPRHSFTSYWIGWVRQMPGKGLEWMASIYPGDSDSRYSPSFEGQVTISADKSIDTAFLQWSSLKASDTAMYFCARYVGAVPGGNWYFDLWGRGTLVTVSS
VL: SYELIQLPSVSVSPGQTARITCSGDALPKKYAYWYQQKSGQAPVLVIYDDNKRPSGIPARFSGSSSGTMATLTISGAQVEDEGDYYCYSTDSTGDHRGVFGGGTKLTVL
B4: ADI-41608 (antibody, V domains shown)
VH: QVQLVQSGDEVKKPGESLKISCKGSEHTFTNYWIAWVRQMPGKGLECMGVIWPDDSDTKYSPSFQGQVTISADKSINTAYLHLSSLRASDTAMYYCATSKFRTGFDFWGQGTLVTVSS
VL: NFMLTQPHSVSESPGKTVIISCTRSSGNIASNYVQWYQQRPGSSPTTVVYEDNQRPSGVPDRFSGSIDSSSNSASLTISGLKTEDEADYYCQSYDSSNPWVFGGGTKLTVL
B5: ADI-41607 (antibody, V domains shown)
VH: EVQLVESGPGLVKPSQTLSLTCTVSGGSINIGGYYWSWIRQHPEKGLEWIGYIYYSGTTYYNPSLESRVTISIDTSKNQFSLNLSSVTAADTAVYYCASVDQIGATRFDYWGQGTLVTVSS
VL: QPVLTQPRSVSGSPGQSVTLSCTGTSSDVGTYNYVSWYQHHPGKAPKLIIYDVNKRPSGVPDRFSGSKSGNTASLTISGLQAEDEADYYCCSYAGSYTLNYVFGTGTKLTVL
B6: ADI-41644 (antibody, V domains shown)
VH: QVQLQQWGPGLVKPSETLSLSCAVSGGSLRGHFWSWIRQPPGKGLEWIGEINHGGRTNFNPSLKSRLTISEDSSKNQFSLKLSSVTAADTAVYYCARRWGYDSSGYYFFDYWGQGTLVTVSS
VL: EIQMTQSPATLSVSPGERATLSCRASQTLGFNLAWYQQKPGQSPRLLIYGASTRATGIPARFSGSGAGTEFTLTISSLQSEDFAVYFCQQYSNYYTFGQGTKVEIK
notes: also called Ab 887; Antibody Number 887
B7: ADI-41611 (antibody, V domains shown)
VH: EVQLVESGGGLVKPGGSLRLSCAASGFTFSDYSMNWVRQAPGKGLEWVSSTSSGSTYIYYADSVKGRFTISRDNGKNSLYLQMNSLRAEDTAVYYCARAFRLGYDALDIWGQGTMVTVSS
VL: DIRMTQSPSSLSASVGDRVTIICRASQSISNYLNWYQQKPGKAPKLLIYVASNLQSGVPSRFSGSGSGTDFTLTISSLQPEDFATYYCQQTYSPPPTFGGGTKLEIK
notes: also called Ab 885; Antibody Number 885
B8: ADI-41660 (antibody, V domains shown)
VH: EVQLVQSGAEVKKPGSSVKVSCKASGGTFSRNAISWVRQAPGQGLEWMGGIIPIFGAANYPQKFQGRVTITADKSTSTAYMELSSLRSEDTALYYCARTMGEMTTTPVSIYYYGMDVWGQGTTVTVSS
VL: QSVLTQPPSVSAAPGQKVTISCSGSSSNIGINYVSWYQQLPGTAPKLLIYDNNKRPSGIPDRFSGSKSGTSATLGITGLQTGDEADYYCGTWDSSLSAGYVFGSGTKLTVL
B9: ADI-14404 (antibody, V domains shown)
VH: EVQLVESGGGLVQPGGSLRLSCAASGFTFSNFEMNWVRQAPGKGLEWVSYISSSGRIIYYADSVKGRFTISRDNARNSLYVQMNSLRVEDTAVYYCARAKAAAGHDLWGQGTLVTVSS
VL: EIVLTQSPSTLSASVGDRVTITCRASQSISPWLAWYQQKPGKAPKLLIYRASSLESGVPSRFSGSGSGTEFTLTISSLQPDDFATYYCQHYNSYLYTFGQGTKVEIK
notes: also called Ab 70
B10: ADI-14417 (antibody, V domains shown)
VH: EVQLVESGGGLVKPGGSLRLSCAASGFSFSSYSMHWVRQAPGKGLEWVSSISGSSTYIYHADSVKGRFTISRDNAERSLHLQMNSLRAEDTAVYYCARDPYSSGWLDSWGQGTLVTVSS
VL: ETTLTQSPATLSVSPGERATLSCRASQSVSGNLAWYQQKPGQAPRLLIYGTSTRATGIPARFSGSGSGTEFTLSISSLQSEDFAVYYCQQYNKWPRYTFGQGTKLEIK
notes: also called Ab 83
B11: ADI-20997 (antibody, V domains shown)
VH: EVQLVESGGGVVQPGRSLRLSCAASGFPFNSYGMHWVRQAPGKGLEWLAVIYFDESTAYYADSVKGRFTISRDNSKSTLYLQMNSLRAADTAIYYCTTTVMIPYGGVFWGQGTLVTVSS
VL: EIVMTQSPGTLSLSPGDRATLSCRASQSVGSTHFAWYQQKPGQAPRLLIYAASIRATGIPDRFSGGGSGTDFTLTISRLAPEDFAVYYCQQYGSTPITFGQGTRLEIK
B12: ADI-14598 (antibody, V domains shown)
VH: QVQLVQSGAEVKKPGSSVKVSCKASGGTFSSYAIYWVRQAPGQGLECMGGIIPIFGSANYAQKFQGRVTITADESTSTAYMELSSLRSEDTAVYYCATDSLKTTYYYGSSGYFRDHVWGQGTTVTVSS
VL: ETTLTQSPSSLSASVGDRVTITCRASQGISNYLAWYQQKPGKVPKLLIFAASTLQSGVPSRFSGSGSGTDFTLTISSLQPEDVATYYCQNFNSVLSFTFGPGTKVDIK
B13: ADI-14605 (antibody, V domains shown)
VH: EVQLLESGPALVKPTQTLTLTCTFSGFSLTTSGMCVSWIRQPPGKALEWLARIDWDDDQYFSTSLRTRLSISKDTSKNQVVLTMTNMDPVDTATYYCARSALNIAARGFDIWGQGTTVTVSS
VL: QPGLTQPPSVSVSPGQTARITCSGDVLPKHFSYWYQQKPGQAPVLVIHRDSERPSGIPERFSGSSSGTTVTLTISGVQAEDEADYYCQFSDITNTVFGGGTKLTVL
B14: ADI-21056 (antibody, V domains shown)
VH: EVQLLESGGGLVKPGGSLKLSCAASGFTLRSYYMHWVRQAPGRGLEWVSSISASSSYINYVDAVKGRFTVSRDNAKNSLFLQMNSLRAEDTAVYYCAREGGAMTNFGVVIDIWGQGTMVTVSS
VL: SYVLTQPPSVSGAPGQRVTISCTGSSSNIGAGYDVHWYQQLPGTAPKLLIYTNTNRPSGVPDRFSGSKSGTSASLAITGLQSDDEADYYCQSYDSSLSGPVVFGGGTKLTVL

Each binder was assayed against RSV F on RSV-A2 virus (Respiratory syncytial virus, RSV-A2, UniProt P03420 26-574) (assay: cell-based or functional assay).

Row | Binder | Neutralization IC50 (RSV subtype A)
1 | B1 | > 25 µg/mL
2 | B2 | > 25 µg/mL
3 | B3 | > 25 µg/mL
4 | B4 | > 25 µg/mL
5 | B5 | > 25 µg/mL
6 | B6 | > 25 µg/mL
7 | B7 | > 25 µg/mL
8 | B8 | > 25 µg/mL

These binders were tested against RSV prefusion F (preF), subtype A (respiratory syncytial virus, subtype A, UniProt P03420 26-513) (assay: BLI, IgG).

Row | Binder | binding result
9 | B9 | no binding
10 | B10 | no binding

These binders were tested against RSV prefusion F (preF), subtype B (respiratory syncytial virus, subtype B) (assay: BLI, IgG).

Row | Binder | Kd
11 | B11 | 3.09 nM
12 | B12 | 7.07 nM
13 | B13 | 2.72 nM
14 | B14 | 0.223 nM

These binders were tested against T1, RSV postfusion F (postF), subtype B (respiratory syncytial virus, subtype B) (assay: BLI, IgG).
T1 construct: also called F ΔFP; Postfusion subtype B

Row | Binder | Kd
15 | B9 | 0.498 nM
16 | B11 | 0.609 nM
17 | B12 | 4.81 nM
18 | B13 | 0.399 nM
19 | B10 | 3.99 nM
20 | B14 | 63.4 nM

These binders were tested against T2, RSV postfusion F (postF), subtype A (respiratory syncytial virus, subtype A, UniProt P03420 26-513) (assay: BLI, IgG).
T2 construct: also called F ΔFP; Postfusion subtype A

Row | Binder | Kd
21 | B9 | 0.627 nM
22 | B12 | 0.452 nM
23 | B10 | 1.63 nM

These binders were tested against RSV postfusion F (postF), F ΔFP (Respiratory syncytial virus, UniProt P03420 26-513) (assay: BLI, IgG on anti-human IgG sensor, 100 nM antigen).

Row | Binder | Kd
24 | B1 | 0.891 nM
25 | B2 | 0.825 nM
26 | B3 | 1.21 nM
27 | B4 | 0.285 nM
28 | B5 | 0.709 nM
29 | B6 | 1.1 nM
30 | B7 | 0.611 nM
31 | B8 | 0.955 nM

The binders below were run against RSV prefusion F (preF), DS-Cav1 (Respiratory syncytial virus, UniProt P03420 26-513) (assay: BLI, IgG on anti-human IgG sensor, 100 nM antigen).

Row | Binder | Kd
32 | B1 | 2.6 nM
33 | B2 | 2.94 nM
34 | B3 | 5.24 nM
35 | B4 | 1.93 nM
36 | B5 | 4.24 nM
37 | B6 | 3.03 nM
38 | B7 | 3.09 nM
39 | B8 | 2.94 nM
